Data published in article PMC6127294, “Jungle Express is a versatile repressor system for tight transcriptional control” (Nature Communications, 2018).

Assays:
EilR-R32A = target: T1, EilR-R32A (UniProt A0A346M331 1-192, R32A); experiment: EMSA; up to 8:1 protein:DNA; 10 mM MgCl2; Operator EMSA: 30 mM Tris pH 7.7, 100 mM NaCl, 25 mM arginine, 25 mM glutamine, 5 mM MgCl2, RT 1.5 h; mutant EMSA: 50 mM Tris pH 8.0, 150 mM NaCl, 50 mM arginine, 50 mM glutamine, 10 mM MgCl2, 0.5 mM DTT, RT 30 min; 2% agarose TBE gels; settings: protein: recombinant; chain copies: 2
T1 sequence: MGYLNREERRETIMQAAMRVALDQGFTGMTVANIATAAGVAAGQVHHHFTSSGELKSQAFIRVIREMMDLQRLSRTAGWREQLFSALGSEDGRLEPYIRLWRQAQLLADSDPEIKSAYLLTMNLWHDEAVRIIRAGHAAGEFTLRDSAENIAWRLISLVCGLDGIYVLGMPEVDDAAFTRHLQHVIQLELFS

EilR-H47A = target: T2, EilR-H47A (UniProt A0A346M331 1-192, H47A); experiment: as above; settings: protein: recombinant; chain copies: 2
T2 sequence: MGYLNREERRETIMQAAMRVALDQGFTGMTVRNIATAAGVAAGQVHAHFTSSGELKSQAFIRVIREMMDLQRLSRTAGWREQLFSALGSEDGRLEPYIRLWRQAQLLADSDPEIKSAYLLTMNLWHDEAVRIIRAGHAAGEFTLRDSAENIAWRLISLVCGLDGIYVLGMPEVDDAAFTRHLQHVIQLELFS

EilR-Y03A/R32A = target: T3, EilR-Y03A/R32A (UniProt A0A346M331 1-192, Y3A;R32A); experiment: as above; settings: protein: recombinant; chain copies: 2
T3 sequence: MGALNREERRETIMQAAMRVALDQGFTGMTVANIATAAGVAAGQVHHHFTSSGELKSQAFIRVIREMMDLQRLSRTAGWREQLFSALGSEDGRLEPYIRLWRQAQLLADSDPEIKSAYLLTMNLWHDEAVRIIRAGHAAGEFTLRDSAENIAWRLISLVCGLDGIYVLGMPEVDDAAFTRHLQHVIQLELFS

EilR [1] = target: T4, EilR (UniProt A0A346M331 1-192); experiment: EMSA; complex appears from 0.125:1 EilR:DNA; 10 mM MgCl2; Operator EMSA: 30 mM Tris pH 7.7, 100 mM NaCl, 25 mM arginine, 25 mM glutamine, 5 mM MgCl2, RT 1.5 h; mutant EMSA: 50 mM Tris pH 8.0, 150 mM NaCl, 50 mM arginine, 50 mM glutamine, 10 mM MgCl2, 0.5 mM DTT, RT 30 min; 2% agarose TBE gels; settings: protein: recombinant; tags: His8 removed with TEV protease; chain copies: 2
T4 sequence: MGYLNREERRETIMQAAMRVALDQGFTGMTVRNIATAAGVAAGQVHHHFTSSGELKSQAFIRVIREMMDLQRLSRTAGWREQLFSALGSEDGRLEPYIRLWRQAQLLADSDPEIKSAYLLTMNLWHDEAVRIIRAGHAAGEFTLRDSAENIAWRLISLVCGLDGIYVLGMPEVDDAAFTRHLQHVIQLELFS

EilR [2] = target: T4, EilR; experiment: EMSA; lower affinity than eilOc; 5 mM MgCl2; Operator EMSA: 30 mM Tris pH 7.7, 100 mM NaCl, 25 mM arginine, 25 mM glutamine, 5 mM MgCl2, RT 1.5 h; mutant EMSA: 50 mM Tris pH 8.0, 150 mM NaCl, 50 mM arginine, 50 mM glutamine, 10 mM MgCl2, 0.5 mM DTT, RT 30 min; 2% agarose TBE gels; settings: protein: recombinant; tags: His8 removed with TEV protease; chain copies: 2

B1: eilOc 28-mer duplex (dsDNA)
DNA 1: AAAAAGTTGGACACGTGTCCAACTTTCC
DNA 2: GGAAAGTTGGACACGTGTCCAACTTTTT
binding result (EilR-R32A): no binding | binding result (EilR-H47A): no binding | binding result (EilR-Y03A/R32A): no binding | binding result (EilR [1]): binds

B2: eilO2 (dsDNA)
DNA 1: CGCAAACTGGACGGATGTCCAGCTTTGT
DNA 2: ACAAAGCTGGACATCCGTCCAGTTTGCG
binding result (EilR [2]): binds
